Laboratory results: patent publication US20130336893A1 (Sanofi, published 2013)
*1 amine or outer side, *2 acyl side, *3 side chain or, on linkers, in order; H or OH if unused. Where no end group is shown, it is not given here. Side-chain parts run from the residue outwards. [ ]: non-standard residue; d: D form. The star is where a group is joined. γGlu = O=C(O)[C@H](CCC(=O)[*:2])N[*:1]; Stearoyl = CCCCCCCCCCCCCCCCCC(=O)*; Palmitoyl = CCCCCCCCCCCCCCCC(=O)*; Orn = NCCC[C@H](N)C(=O)O; Dab = NCC[C@H](N)C(=O)O; Dap = NC[C@H](N)C(=O)O; Aib = CC(C)(N)C(=O)O

B1: SEQ ID NO: (78) (peptide)
peptide: H[dS]QGTFTSDLSKQMESRRAQDFIEWLKSGGPSSGAPPPSK([γGlu-Palmitoyl])-NH2
modifications: N-terminus assumed
SMILES: CCCCCCCCCCCCCCCC(=O)N[C@@H](CCC(=O)NCCCC[C@H](NC(=O)[C@H](CO)NC(=O)[C@@H]1CCCN1C(=O)[C@@H]1CCCN1C(=O)[C@@H]1CCCN1C(=O)[C@H](C)NC(=O)CNC(=O)[C@H](CO)NC(=O)[C@H](CO)NC(=O)[C@@H]1CCCN1C(=O)CNC(=O)CNC(=O)[C@H](CO)NC(=O)[C@H](CCCCN)NC(=O)[C@H](CC(C)C)NC(=O)[C@H](Cc1c[nH]c2ccccc12)NC(=O)[C@H](CCC(=O)O)NC(=O)[C@@H](NC(=O)[C@H](Cc1ccccc1)NC(=O)[C@H](CC(=O)O)NC(=O)[C@H](CCC(N)=O)NC(=O)[C@H](C)NC(=O)[C@H](CCCNC(=N)N)NC(=O)[C@H](CCCNC(=N)N)NC(=O)[C@H](CO)NC(=O)[C@H](CCC(=O)O)NC(=O)[C@H](CCSC)NC(=O)[C@H](CCC(N)=O)NC(=O)[C@H](CCCCN)NC(=O)[C@H](CO)NC(=O)[C@H](CC(C)C)NC(=O)[C@H](CC(=O)O)NC(=O)[C@H](CO)NC(=O)[C@@H](NC(=O)[C@H](Cc1ccccc1)NC(=O)[C@@H](NC(=O)CNC(=O)[C@H](CCC(N)=O)NC(=O)[C@@H](CO)NC(=O)[C@@H](N)Cc1c[nH]cn1)[C@@H](C)O)[C@@H](C)O)[C@@H](C)CC)C(N)=O)C(=O)O
B2: SEQ ID NO: (79) (peptide)
peptide: H[dS]QGTFTSDLSKQMESRAAQLFIEWLKAGGPSSGAPPPSK([γGlu-Palmitoyl])-NH2
modifications: N-terminus assumed
SMILES: CCCCCCCCCCCCCCCC(=O)N[C@@H](CCC(=O)NCCCC[C@H](NC(=O)[C@H](CO)NC(=O)[C@@H]1CCCN1C(=O)[C@@H]1CCCN1C(=O)[C@@H]1CCCN1C(=O)[C@H](C)NC(=O)CNC(=O)[C@H](CO)NC(=O)[C@H](CO)NC(=O)[C@@H]1CCCN1C(=O)CNC(=O)CNC(=O)[C@H](C)NC(=O)[C@H](CCCCN)NC(=O)[C@H](CC(C)C)NC(=O)[C@H](Cc1c[nH]c2ccccc12)NC(=O)[C@H](CCC(=O)O)NC(=O)[C@@H](NC(=O)[C@H](Cc1ccccc1)NC(=O)[C@H](CC(C)C)NC(=O)[C@H](CCC(N)=O)NC(=O)[C@H](C)NC(=O)[C@H](C)NC(=O)[C@H](CCCNC(=N)N)NC(=O)[C@H](CO)NC(=O)[C@H](CCC(=O)O)NC(=O)[C@H](CCSC)NC(=O)[C@H](CCC(N)=O)NC(=O)[C@H](CCCCN)NC(=O)[C@H](CO)NC(=O)[C@H](CC(C)C)NC(=O)[C@H](CC(=O)O)NC(=O)[C@H](CO)NC(=O)[C@@H](NC(=O)[C@H](Cc1ccccc1)NC(=O)[C@@H](NC(=O)CNC(=O)[C@H](CCC(N)=O)NC(=O)[C@@H](CO)NC(=O)[C@@H](N)Cc1c[nH]cn1)[C@@H](C)O)[C@@H](C)O)[C@@H](C)CC)C(N)=O)C(=O)O
B3: SEQ ID NO: (80) (peptide)
peptide: H[dS]QGTFTSDLSKQMESRRAQDFIEWLK[Aib]GGPSSGAPPPK([γGlu-Palmitoyl])-NH2
modifications: N-terminus assumed
SMILES: CCCCCCCCCCCCCCCC(=O)N[C@@H](CCC(=O)NCCCC[C@H](NC(=O)[C@@H]1CCCN1C(=O)[C@@H]1CCCN1C(=O)[C@@H]1CCCN1C(=O)[C@H](C)NC(=O)CNC(=O)[C@H](CO)NC(=O)[C@H](CO)NC(=O)[C@@H]1CCCN1C(=O)CNC(=O)CNC(=O)C(C)(C)NC(=O)[C@H](CCCCN)NC(=O)[C@H](CC(C)C)NC(=O)[C@H](Cc1c[nH]c2ccccc12)NC(=O)[C@H](CCC(=O)O)NC(=O)[C@@H](NC(=O)[C@H](Cc1ccccc1)NC(=O)[C@H](CC(=O)O)NC(=O)[C@H](CCC(N)=O)NC(=O)[C@H](C)NC(=O)[C@H](CCCNC(=N)N)NC(=O)[C@H](CCCNC(=N)N)NC(=O)[C@H](CO)NC(=O)[C@H](CCC(=O)O)NC(=O)[C@H](CCSC)NC(=O)[C@H](CCC(N)=O)NC(=O)[C@H](CCCCN)NC(=O)[C@H](CO)NC(=O)[C@H](CC(C)C)NC(=O)[C@H](CC(=O)O)NC(=O)[C@H](CO)NC(=O)[C@@H](NC(=O)[C@H](Cc1ccccc1)NC(=O)[C@@H](NC(=O)CNC(=O)[C@H](CCC(N)=O)NC(=O)[C@@H](CO)NC(=O)[C@@H](N)Cc1c[nH]cn1)[C@@H](C)O)[C@@H](C)O)[C@@H](C)CC)C(N)=O)C(=O)O
B4: SEQ ID NO: (88) (peptide)
peptide: H[dS]QGTFTSDLSKQMESRRAQDFIEWLKSGGPSSGAPPPS[Orn]([γGlu-Palmitoyl])-NH2
modifications: N-terminus assumed
SMILES: CCCCCCCCCCCCCCCC(=O)N[C@@H](CCC(=O)NCCC[C@H](NC(=O)[C@H](CO)NC(=O)[C@@H]1CCCN1C(=O)[C@@H]1CCCN1C(=O)[C@@H]1CCCN1C(=O)[C@H](C)NC(=O)CNC(=O)[C@H](CO)NC(=O)[C@H](CO)NC(=O)[C@@H]1CCCN1C(=O)CNC(=O)CNC(=O)[C@H](CO)NC(=O)[C@H](CCCCN)NC(=O)[C@H](CC(C)C)NC(=O)[C@H](Cc1c[nH]c2ccccc12)NC(=O)[C@H](CCC(=O)O)NC(=O)[C@@H](NC(=O)[C@H](Cc1ccccc1)NC(=O)[C@H](CC(=O)O)NC(=O)[C@H](CCC(N)=O)NC(=O)[C@H](C)NC(=O)[C@H](CCCNC(=N)N)NC(=O)[C@H](CCCNC(=N)N)NC(=O)[C@H](CO)NC(=O)[C@H](CCC(=O)O)NC(=O)[C@H](CCSC)NC(=O)[C@H](CCC(N)=O)NC(=O)[C@H](CCCCN)NC(=O)[C@H](CO)NC(=O)[C@H](CC(C)C)NC(=O)[C@H](CC(=O)O)NC(=O)[C@H](CO)NC(=O)[C@@H](NC(=O)[C@H](Cc1ccccc1)NC(=O)[C@@H](NC(=O)CNC(=O)[C@H](CCC(N)=O)NC(=O)[C@@H](CO)NC(=O)[C@@H](N)Cc1c[nH]cn1)[C@@H](C)O)[C@@H](C)O)[C@@H](C)CC)C(N)=O)C(=O)O
B5: SEQ ID NO: (90) (peptide)
peptide: H[dS]QGTFTSDLSKQMESRRAQDFIEWLKSGGPSSGAPPPS[Dap]([γGlu-Palmitoyl])-NH2
modifications: N-terminus assumed
SMILES: CCCCCCCCCCCCCCCC(=O)N[C@@H](CCC(=O)NC[C@H](NC(=O)[C@H](CO)NC(=O)[C@@H]1CCCN1C(=O)[C@@H]1CCCN1C(=O)[C@@H]1CCCN1C(=O)[C@H](C)NC(=O)CNC(=O)[C@H](CO)NC(=O)[C@H](CO)NC(=O)[C@@H]1CCCN1C(=O)CNC(=O)CNC(=O)[C@H](CO)NC(=O)[C@H](CCCCN)NC(=O)[C@H](CC(C)C)NC(=O)[C@H](Cc1c[nH]c2ccccc12)NC(=O)[C@H](CCC(=O)O)NC(=O)[C@@H](NC(=O)[C@H](Cc1ccccc1)NC(=O)[C@H](CC(=O)O)NC(=O)[C@H](CCC(N)=O)NC(=O)[C@H](C)NC(=O)[C@H](CCCNC(=N)N)NC(=O)[C@H](CCCNC(=N)N)NC(=O)[C@H](CO)NC(=O)[C@H](CCC(=O)O)NC(=O)[C@H](CCSC)NC(=O)[C@H](CCC(N)=O)NC(=O)[C@H](CCCCN)NC(=O)[C@H](CO)NC(=O)[C@H](CC(C)C)NC(=O)[C@H](CC(=O)O)NC(=O)[C@H](CO)NC(=O)[C@@H](NC(=O)[C@H](Cc1ccccc1)NC(=O)[C@@H](NC(=O)CNC(=O)[C@H](CCC(N)=O)NC(=O)[C@@H](CO)NC(=O)[C@@H](N)Cc1c[nH]cn1)[C@@H](C)O)[C@@H](C)O)[C@@H](C)CC)C(N)=O)C(=O)O

Biological target: human GLP-1 receptor (human, UniProt P43220 24-463)
Assay: cell-based or functional assay

Binder	EC50 hGLP-1R (cAMP formation) [nM]
H[dS]QGTFTSDLSKQMESRRAQDFIEWLK[Aib]GGPSSGAPPPK(Palmitoyl)-NH2 [SEQ ID NO: (81)]	0.0197
GH[dS]QGTFTSDLSKQMESRRAQDFIEWLKSGGPSSGAPPPSK([γGlu-Palmitoyl])-NH2 [SEQ ID NO: (82)]	2.59
B1	0.0042
B2	0.0037
HSQGTFTSDLSKQMDERRAQDFIEWLKNGGPSSGAPPPS-NH2 [SEQ ID NO: (5)]	0.0166
Ac-H[dS]QGTFTSDLSKQMESRRAQDFIEWLKSGGPSSGAPPPSK([γGlu-Palmitoyl])-NH2 [SEQ ID NO: (83)]	0.369
H[dS]QGTFTSDLSKQMESRRAQDFIEWLKSGGPSSGAPPPSK(Stearoyl)-NH2 [SEQ ID NO: (85)]	0.0064
B3	0.0108
HSQGTFTSDLSKQMEERRAQDFIEWLKNGGPSSGAPPPS-NH2 [SEQ ID NO: (15)]	0.0352
H[dS]QGTFTSDLSKQMESRRAQDFIEWLKSGGPSSGAPPPS[Dab]([γGlu-Palmitoyl])-NH2 [SEQ ID NO: (89)]	0.0059
H[dS]QGTFTSDLSKQMESRRAQDFIEWLKSGGPSSGAPPPSK([γGlu-tocopheryl‑succinyl])-NH2 [SEQ ID NO: (86)]	0.0281
B4	0.0051
B5	0.0049
H[dS]QGTFTSDLSKQMESRRAQDFIEWLKSGGPSSGAPPPSK([γGlu-Stearoyl])-NH2 [SEQ ID NO: (84)]	0.0039

Biological target: human glucagon receptor (human, UniProt P47871 26-477)
Sequence (P47871 26-477): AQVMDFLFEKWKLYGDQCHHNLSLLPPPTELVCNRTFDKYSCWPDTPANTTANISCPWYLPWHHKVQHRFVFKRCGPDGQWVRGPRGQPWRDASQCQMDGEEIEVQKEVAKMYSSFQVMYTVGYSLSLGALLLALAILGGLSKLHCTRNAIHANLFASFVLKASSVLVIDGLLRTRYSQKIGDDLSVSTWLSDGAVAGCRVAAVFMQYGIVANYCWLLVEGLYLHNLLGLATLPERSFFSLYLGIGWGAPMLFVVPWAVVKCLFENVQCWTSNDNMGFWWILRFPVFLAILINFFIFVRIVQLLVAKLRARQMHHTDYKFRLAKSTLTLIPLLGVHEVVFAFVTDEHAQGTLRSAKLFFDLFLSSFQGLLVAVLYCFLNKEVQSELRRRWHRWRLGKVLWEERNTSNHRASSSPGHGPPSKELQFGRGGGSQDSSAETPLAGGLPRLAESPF
Assay: cell-based or functional assay

Binder	EC50 hGlucagonR (cAMP formation) [nM]
H[dS]QGTFTSDLSKQMESRRAQDFIEWLK[Aib]GGPSSGAPPPK(Palmitoyl)-NH2 [SEQ ID NO: (81)]	0.0293
GH[dS]QGTFTSDLSKQMESRRAQDFIEWLKSGGPSSGAPPPSK([γGlu-Palmitoyl])-NH2 [SEQ ID NO: (82)]	5.52
B1	0.0181
B2	0.195
HSQGTFTSDLSKQMDERRAQDFIEWLKNGGPSSGAPPPS-NH2 [SEQ ID NO: (5)]	0.067
Ac-H[dS]QGTFTSDLSKQMESRRAQDFIEWLKSGGPSSGAPPPSK([γGlu-Palmitoyl])-NH2 [SEQ ID NO: (83)]	0.375
H[dS]QGTFTSDLSKQMESRRAQDFIEWLKSGGPSSGAPPPSK(Stearoyl)-NH2 [SEQ ID NO: (85)]	0.009
B3	0.0381
HSQGTFTSDLSKQMEERRAQDFIEWLKNGGPSSGAPPPS-NH2 [SEQ ID NO: (15)]	0.538
H[dS]QGTFTSDLSKQMESRRAQDFIEWLKSGGPSSGAPPPS[Dab]([γGlu-Palmitoyl])-NH2 [SEQ ID NO: (89)]	0.0198
H[dS]QGTFTSDLSKQMESRRAQDFIEWLKSGGPSSGAPPPSK([γGlu-tocopheryl‑succinyl])-NH2 [SEQ ID NO: (86)]	0.0218
B4	0.0182
B5	0.0336
H[dS]QGTFTSDLSKQMESRRAQDFIEWLKSGGPSSGAPPPSK([γGlu-Stearoyl])-NH2 [SEQ ID NO: (84)]	0.0138
